Test results: PMC11931385, “Structural and functional analysis of cancer-associated missense variants in the retinoblastoma protein pocket domain” (The Journal of Biological Chemistry, 2025)
No end group written: not given here. TMR = tetramethyl rhodamine dye

T1: Rb^P K530I (human, UniProt P06400 380-788, K530I)
T1 construct: also called variant 21
T1 sequence (looked up): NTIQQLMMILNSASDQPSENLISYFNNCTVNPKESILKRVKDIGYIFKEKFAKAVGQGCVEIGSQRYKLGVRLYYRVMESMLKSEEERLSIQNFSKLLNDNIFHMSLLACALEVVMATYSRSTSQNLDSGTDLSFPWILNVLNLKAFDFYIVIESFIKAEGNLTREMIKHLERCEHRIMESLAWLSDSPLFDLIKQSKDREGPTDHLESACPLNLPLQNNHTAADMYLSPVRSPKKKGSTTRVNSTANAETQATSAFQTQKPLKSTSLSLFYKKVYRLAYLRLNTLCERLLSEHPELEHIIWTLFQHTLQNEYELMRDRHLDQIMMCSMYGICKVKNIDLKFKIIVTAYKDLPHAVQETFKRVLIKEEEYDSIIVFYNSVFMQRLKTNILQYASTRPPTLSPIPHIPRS

T2: Rb^P R668H (human, UniProt P06400 380-788, R668H)
T2 construct: also called variant 52
T2 sequence (looked up): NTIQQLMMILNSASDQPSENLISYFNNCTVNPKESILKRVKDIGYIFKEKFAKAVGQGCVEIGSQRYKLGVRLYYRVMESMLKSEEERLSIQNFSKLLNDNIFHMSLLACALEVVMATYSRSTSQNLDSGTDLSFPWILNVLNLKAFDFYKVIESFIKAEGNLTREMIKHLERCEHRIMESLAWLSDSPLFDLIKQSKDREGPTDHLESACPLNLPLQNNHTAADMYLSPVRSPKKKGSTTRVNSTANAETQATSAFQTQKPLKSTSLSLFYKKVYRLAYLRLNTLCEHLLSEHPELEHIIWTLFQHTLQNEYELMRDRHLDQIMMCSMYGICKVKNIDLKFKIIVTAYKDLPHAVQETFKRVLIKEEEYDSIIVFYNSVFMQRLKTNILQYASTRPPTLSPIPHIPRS

T3: Rb^P E675Q (human, UniProt P06400 380-788, E675Q)
T3 construct: also called variant 56
T3 sequence (looked up): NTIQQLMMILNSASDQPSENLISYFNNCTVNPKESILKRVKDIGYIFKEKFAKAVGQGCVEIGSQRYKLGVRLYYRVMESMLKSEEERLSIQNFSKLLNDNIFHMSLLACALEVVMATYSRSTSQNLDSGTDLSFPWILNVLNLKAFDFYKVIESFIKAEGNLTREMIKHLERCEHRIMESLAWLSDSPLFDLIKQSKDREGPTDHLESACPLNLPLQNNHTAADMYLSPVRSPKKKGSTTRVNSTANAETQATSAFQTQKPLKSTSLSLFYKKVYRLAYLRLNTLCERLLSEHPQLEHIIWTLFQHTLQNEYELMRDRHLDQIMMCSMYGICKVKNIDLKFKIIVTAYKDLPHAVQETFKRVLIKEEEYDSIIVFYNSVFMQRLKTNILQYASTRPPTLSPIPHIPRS

T4: Rb^P I679F (human, UniProt P06400 380-788, I679F)
T4 construct: also called variant 57
T4 sequence (looked up): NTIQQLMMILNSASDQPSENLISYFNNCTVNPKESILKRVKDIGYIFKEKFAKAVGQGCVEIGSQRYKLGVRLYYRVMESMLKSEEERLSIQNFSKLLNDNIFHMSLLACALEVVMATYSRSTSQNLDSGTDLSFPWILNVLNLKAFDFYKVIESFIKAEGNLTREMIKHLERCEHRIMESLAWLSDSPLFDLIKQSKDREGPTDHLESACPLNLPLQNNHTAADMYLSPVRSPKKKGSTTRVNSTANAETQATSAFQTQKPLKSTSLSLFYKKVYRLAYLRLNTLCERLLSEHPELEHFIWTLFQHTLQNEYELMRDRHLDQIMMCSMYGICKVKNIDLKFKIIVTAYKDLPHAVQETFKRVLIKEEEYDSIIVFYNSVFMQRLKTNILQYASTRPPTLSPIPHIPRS

T5: Rb^P R451C (human, UniProt P06400 380-788, R451C)
T5 construct: also called variant 5
T5 sequence (looked up): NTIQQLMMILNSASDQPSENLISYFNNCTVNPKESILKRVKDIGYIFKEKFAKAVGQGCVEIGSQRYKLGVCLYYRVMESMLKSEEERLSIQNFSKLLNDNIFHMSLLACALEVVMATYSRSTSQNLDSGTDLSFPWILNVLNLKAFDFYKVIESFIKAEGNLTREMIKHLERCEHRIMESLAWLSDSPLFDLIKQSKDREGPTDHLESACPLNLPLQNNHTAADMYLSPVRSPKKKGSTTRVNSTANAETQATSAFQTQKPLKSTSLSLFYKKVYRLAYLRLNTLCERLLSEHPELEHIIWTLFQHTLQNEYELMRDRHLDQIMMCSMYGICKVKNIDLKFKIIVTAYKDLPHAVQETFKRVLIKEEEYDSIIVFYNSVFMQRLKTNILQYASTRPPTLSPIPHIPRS

B1: TMR-E2F1^TD, peptide of the E2F1 transactivation domain (peptide)
peptide: {TMR}-GEGIRDLFDCDFGDLTPLD
notes: also called E2F^TD; source: synthetic peptide, bought: GenScript
B2: TMR-E7^LxCxE, LxCxE peptide of the E7 oncoprotein from HPV (peptide)
peptide: DLYCYEQLN
modifications: also: TMR label, position not given here
notes: source: synthetic peptide, bought: GenScript

Tests used:
Test in all cases: fluorescence polarisation; 25 °C; unlabeled Rb^P titrated against 1.5 nM TMR-E2F1^TD or 7.5 nM TMR-E7^LxCxE; 25 mM Tris pH 8.0, 200 mM NaCl, 1 mM DTT, 0.1% Tween-20; 2 min incubation; quadratic fit; apparent Kd for the variants, Kd for WT
Settings in all cases: both partners purified
Rb^P K530I = target: T1, Rb^P K530I
Rb^P R668H = target: T2, Rb^P R668H
Rb^P E675Q = target: T3, Rb^P E675Q
Rb^P I679F = target: T4, Rb^P I679F
Rb^P R451C = target: T5, Rb^P R451C

Binder | Kd (Rb^P K530I) [nM] | Kd (Rb^P R668H) [nM] | Kd (Rb^P E675Q) [nM] | Kd (Rb^P I679F) [nM] | Kd (Rb^P R451C) [nM]
B1 | 945 | 13 | 35 | 17 | 33
B2 | 8 | 7 | 20 | 11 | 7
